Test results taken from the supplement of paper PMC9732359.
± gives the uncertainty stated by the source.

Test: protein stability index of a GFP-peptide fusion (yeast GPS) (PSI 1-4); higher = more stable; sorted into four equal gates, so the index is relative within each strain
Summary of the method: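 Each library plasmid carries Cherry plus GFP with a tiled 17-residue yeast protein peptide fused downstream, and the pooled library was carried in yeast. Mid-log cultures in leucine-free medium were sorted into four equal gates by GFP/Cherry ratio. Reads from Illumina sequencing of PCR-amplified plasmids from each gate were assigned to strains by barcodes. Per peptide, the protein stability index was computed as the summed products of gate read frequency and gate number.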

Sequence	protein stability index (doa10∆)	protein stability index (pdr5∆)	protein stability index (san1∆)	protein stability index (ubr1∆)
QKCFKLTHRLGGDTCSS [POP1]	2.27 ± 0.059	1.85 ± 0.056	2.55 ± 0.068	2.51 ± 0.054
QKGITSYAVSPYAQKPL [QCR8]	2.92 ± 0.13	3.05 ± 0.14	2.92 ± 0.063	3.13 ± 0.089
QKNDTAAFKDIAKRQFK [RRP40]	2.95 ± 0.093	3.33 ± 0.12	2.76 ± 0.068	3.35 ± 0.058
QKNMNDLLRSQLTSLEK [YIL149C/MLP2]	2.89 ± 0.073	2.17 ± 0.056	1.96 ± 0.075	2.35 ± 0.05
QKRIENGGNSVITLAEY [SRP68]	2.47 ± 0.076	2.89 ± 0.081	2.9 ± 0.069	3.22 ± 0.1
QKRNAHGYFLQDKEKID [ITC1]	3.32 ± 0.098	3.38 ± 0.071	3.28 ± 0.048	3.42 ± 0.056
QKVSENFEAVFERLVPR [SMC3]	2.53 ± 0.28			
QLDAYGEKKVGSNGELF [SWP82]	3.28 ± 0.13	3.29 ± 0.089	3.62 ± 0.071	3.32 ± 0.12
QLDLCKLYFQLFLNTGC [SRP68]	2.01 ± 0.038	1.4 ± 0.042	1.45 ± 0.092	1.7 ± 0.037
QLDLTGIFLHGKIPTLK [PRP8]	2.39 ± 0.078	1.43 ± 0.058	1.58 ± 0.089	1.36 ± 0.046
QLIDQFEWDISNSDNCP [SNF5]	3.02 ± 0.092	3.18 ± 0.12	3.21 ± 0.058	3.27 ± 0.065
QLKAEEKKILNQFLKIK [SMC1]	2.8 ± 0.045	3.19 ± 0.1	2.84 ± 0.09	2.99 ± 0.078
QLKMVNERELNVFARLS [RPC82]		2 ± 0.2		2.95 ± 0.12
QLKNGLLEKYNTNELKE [MTR3]	2.97 ± 0.055	2.69 ± 0.056	3.08 ± 0.05	2.65 ± 0.045
QLLMGDIPELSFFHQSN [RPN3]	2.43 ± 0.067	2.2 ± 0.054	2.39 ± 0.077	2.62 ± 0.039
QLLNGQKIVVVRAEELN [RPL16A]	1.28 ± 0.049	1.31 ± 0.051	1.24 ± 0.13	1.21 ± 0.056
QLNLNNLTPANILNMSM [PGD1]	3.04 ± 0.1	3.19 ± 0.07	2.75 ± 0.067	3.02 ± 0.045
QLTSLEKDCSLRAIEKN [YIL149C/MLP2]	2.58 ± 0.068	2.8 ± 0.064	2.98 ± 0.058	3.06 ± 0.047
QLVLRGLLSQAIGCIER [YJR042W/NUP85]	1.98 ± 0.11	2.15 ± 0.073	1.71 ± 0.099	2.3 ± 0.076
QLYKRDPVSGAILVPMT [YJR042W/NUP85]	1.95 ± 0.18	1.75 ± 0.24	2.6 ± 0.099	2.67 ± 0.13
QMIQQRHQQLLRSRLQQ [SNF5]	2.08 ± 0.12	2.14 ± 0.15	2.71 ± 0.15	3.02 ± 0.12
QNGQQPPTTSNLIIFLY [YML103C/NUP188]	2.83 ± 0.05	2.78 ± 0.04	2.94 ± 0.034	3.06 ± 0.035
QNIILRSTMMKFLKIAS [RPN3]	2.15 ± 0.072	2.42 ± 0.067	2.86 ± 0.077	3.03 ± 0.048
QNKEIKAERVEDQKVVD [RPL6A]	3.4 ± 0.067	3.44 ± 0.066	3.33 ± 0.041	3.35 ± 0.052
QNPLNKSQNTALPSTHK [SIR4]	2.62 ± 0.048	2.88 ± 0.049	2.33 ± 0.058	2.76 ± 0.037
QNTSNMNAGGLFGAKPQ [YGR119C/NUP57]	2.08 ± 0.055	3.05 ± 0.063	3.34 ± 0.052	2.17 ± 0.076
QNTVPNVLNQINQIFSP [GAL11]	2.63 ± 0.039	2.5 ± 0.033	2.4 ± 0.038	2.44 ± 0.032

Sequence	protein stability index (doa10∆)	protein stability index (pdr5∆)	protein stability index (san1∆)	protein stability index (ubr1∆)
QNVISLGSLTVEDYLSS [RPC82]	2.83 ± 0.095	2.84 ± 0.078	2.06 ± 0.12	3 ± 0.074
QPDANKKKRSRTSATRE [ISW2]	3.46 ± 0.14	3.38 ± 0.079	3.5 ± 0.057	3.16 ± 0.1
QPDENTKEMDEVEEDDE [SWI3]	3.22 ± 0.17	3.49 ± 0.15	3.53 ± 0.092	3.43 ± 0.054
QPHIFNNPKVKTSKRTK [RPS11A]	2.95 ± 0.052	2.81 ± 0.061	2.98 ± 0.091	2.36 ± 0.031
QPIVTGTSVISMKYDNG [PRE4]	2.1 ± 0.25	2.69 ± 0.23	1.93 ± 0.15	2 ± 0.2
QPKDLRAKKTRALRRAL [RPL35A]				3.1 ± 0.15
QPSDVMFNDLNSMDISM [MED2]	2.63 ± 0.043	2.99 ± 0.053	3.11 ± 0.043	2.76 ± 0.048
QPTGLLKGLNGFPSAPQ [YMR153W/NUP53]	3.39 ± 0.14	3.3 ± 0.12	3.25 ± 0.11	3.18 ± 0.1
QPVNINLDSSITQDGKF [YMR129W/POM152]	2.92 ± 0.098	3.18 ± 0.084	3.07 ± 0.048	3.04 ± 0.059
QQIPLLCYMAPMTVKLV [POP3]	1.63 ± 0.052	1.57 ± 0.047	1.78 ± 0.072	1.53 ± 0.057
QQLQVLARYLKMDLDNG [FAS2]	1.9 ± 0.13	2.04 ± 0.089	2.78 ± 0.079	2.31 ± 0.051
QQQLVNQMKVAPIPKQL [GAL11]	2.94 ± 0.046	2.96 ± 0.041	2.974 ± 0.026	2.63 ± 0.038
QQQQIQVPLQQTQAIAQ [YGR119C/NUP57]	2.61 ± 0.061	2.82 ± 0.048	2.88 ± 0.039	2.885 ± 0.028
QQQQQQNNSTGSSSIIY [SSN2]	2.65 ± 0.07	2.99 ± 0.062	2.69 ± 0.091	2.79 ± 0.065
QQQQQQQQPQPQYNMNM [PGD1]	2.33 ± 0.07	2.79 ± 0.065	2.67 ± 0.11	2.81 ± 0.16
QQQQQQQQQQQNNSTGS [SSN2]	2.58 ± 0.06	2.78 ± 0.049	2.52 ± 0.11	2.85 ± 0.065
QQQRRQLTPQQQQLVNQ [GAL11]	2.72 ± 0.049	3 ± 0.05	2.8 ± 0.038	3 ± 0.049
QQVVCIFSYGPHIQKML [POP6]	1.66 ± 0.053	1.77 ± 0.047	1.74 ± 0.11	2.07 ± 0.054
QRKEIKDRISSCSSKEK [SMC4]	2.28 ± 0.1	2.7 ± 0.063	2.49 ± 0.12	2.89 ± 0.09
QRKNIQSLELMIYDDAH [BRR2]	2.39 ± 0.047	2.61 ± 0.051	2.54 ± 0.066	2.46 ± 0.049
QRLVTPQRLQRKRHQRA [RPS6A]	2.64 ± 0.059	3.13 ± 0.05	3.23 ± 0.039	3.09 ± 0.035
QRQYKVQLLLHINSILL [SNF11]	1.88 ± 0.082	1.84 ± 0.061	1.89 ± 0.098	1.96 ± 0.057
QRTAQDRVQQDSEDEDS [YML031W/NDC1]	2.78 ± 0.089	2.56 ± 0.078	3.24 ± 0.081	2.91 ± 0.052
QSQQAQPSDVMFNDLNS [MED2]	3.1 ± 0.057	3.37 ± 0.078	3.44 ± 0.063	3.11 ± 0.095
QSSFAGTWSAKEAVFKS [FAS2]	2.98 ± 0.078	3.23 ± 0.071	3.18 ± 0.054	2.99 ± 0.058
QSSSSTRSHEYGRKSFR [REC8]	2.83 ± 0.11	2.92 ± 0.099	2.84 ± 0.12	3.2 ± 0.13
